Laboratory results: US20210347870A1

B1: C2G4 scFv protein (scFv)
scFv: EVQLLESGGGLVQPGGSLRLSCAASGFTFSNYAMSWVRQAPGKGLEWVSGIPPDSGSKYYADSVRGRFTVSRDNSKNTLYLQMNSLRAEDTAVYYCAKNMLSFDYWGQGTLVTVSSGGGGSGGGGSGGGGSQSVLTQPPSASGTPGQRVTISCTGSSSNIGSNAVSWYQQLPGTAPKLLIYYNSKRPSGVPDRFSGSKSGTSASLAISGLRSEDEADYYCGSWDPSLNGYVFGGGTKVTVLG
B2: MS501 scFv protein (scFv)
scFv: EVQLLESGGGLVQPGGSLRLSCAASGFTFSNYAMSWVRQAPGKGLEWVSGIYPDSGSTYYADSVKGRFTISRDNSKNTLYLQMNSLRAEDTAVYYCARNIYTFDYWGQGTLVTVSSGGGGSGGGGSGGGGSQSVLTQPPSASGTPGQRVTISCSGSSSNIGSNAVSWYQQLPGTAPKLLIYYNNQRPSGVPDRFSGSKSGTSASLAISGLRSEDEADYYCGSWDSSLSGYVFGGGTKLTVLG
B3: MS503 scFv protein (scFv)
scFv: EVQLLESGGGLVQPGGSLRLSCAASGFTFSNYAMSWVRQAPGKGLEWVSSIYPGDGSTYYADSVKGRFTISRDNSKNTLYLQMNSLRAEDTAVYYCAKNAFTFDYWGQGTLVTVSSGGGGSGGGGSGGGGSQSVLTQPPSASGTPGQRVTISCSGSSSNIGSNAVSWYQQLPGTAPKLLIYYNSHRPSGVPDRFSGSKSGTSASLAISGLRSEDEADYYCGTWDSSLSGYVFGGGTKLTVLG

These binders were tested against mesothelin on MIA PaCa2-MSLN cells (mesothelin-overexpressing human pancreatic cancer cell line) (UniProt Q13421) (assay: flow cytometry: 1 µg scFv on 1x10^5 MIA PaCa2-MSLN cells, anti-6X His tag antibody detection).
Sequence of UniProt Q13421 (Q13421 other isoform, or with tags, fused parts or gaps limits assumed): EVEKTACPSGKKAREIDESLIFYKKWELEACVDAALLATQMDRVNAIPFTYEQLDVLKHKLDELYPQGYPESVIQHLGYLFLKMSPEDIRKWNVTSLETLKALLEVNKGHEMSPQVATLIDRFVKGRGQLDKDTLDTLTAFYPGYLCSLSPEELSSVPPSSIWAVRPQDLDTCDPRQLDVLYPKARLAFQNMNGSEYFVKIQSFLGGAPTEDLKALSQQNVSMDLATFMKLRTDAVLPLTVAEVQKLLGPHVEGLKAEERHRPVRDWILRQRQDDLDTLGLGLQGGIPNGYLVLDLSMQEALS
In the case of B1, the percent bound is reported as > 68%. In the case of B2, the percent bound is reported as > 68%. For B3, the percent bound was > 68%.
